Tests used:
[1] = target: T1, MksBEF (Corynebacterium glutamicum, UniProt Q8NLY2); assay: EnzChek phosphate release; format: biochemical; details: 2 mM Mg-ATP, 30 °C, with or without 50 ng/ul plasmid DNA (pBHK18)
T1 construct: gene Cgl2804; with Kleisin subunit MksF (MukF/JetA homologue); Kite subunit MksE (MukE/JetB homologue)

[2] = target: MksE (His6-MksE), kite subunit of the Corynebacterium glutamicum MksBEFG complex (Corynebacterium glutamicum) (UniProt Q8NLY1); assay: BLI; BLItz, streptavidin biosensors; biotinylated bait immobilised (MksE 25 ug/ml, MksB 50 ug/ml or MksG 100 ug/ml), MksF as analyte 1-5 uM; BLI buffer 10 mM Na2HPO4, 137 mM NaCl, 2.7 mM KCl, 1.8 mM KH2PO4, 10 mM MgCl2, 5% glycerol, pH 7.4; 1:1 binding model
[3] = target: MksB (His10-MksB), condensin-like ATPase subunit of the Corynebacterium glutamicum MksBEFG complex (Corynebacterium glutamicum) (UniProt Q8NLY2); assay: as above
[4] = target: the molecule itself; assay: crystal structure; X-ray, 4.6 A, solved by molecular replacement with AlphaFold2 domain models; crystals in 10% PEG 6K, 30% ethanol, 10 mM sodium acetate
[5] = target: T2, MksF (His6-MksF), kleisin subunit of the Corynebacterium glutamicum MksBEFG complex (Corynebacterium glutamicum, UniProt Q8NLY0 1-495); assay: BLI; BLItz, streptavidin biosensors; biotinylated bait immobilised (MksE 25 ug/ml, MksB 50 ug/ml or MksG 100 ug/ml), MksF as analyte 1-5 uM; BLI buffer 10 mM Na2HPO4, 137 mM NaCl, 2.7 mM KCl, 1.8 mM KH2PO4, 10 mM MgCl2, 5% glycerol, pH 7.4; 1:1 binding model; details: both partners purified
T2 construct: MksF of Corynebacterium glutamicum, gene mksF (cg3106), amplified from genomic DNA and ligated NdeI/BamHI into pET28a (plasmid pMG001); Analyte in the BLI experiments with constants; biotinylated (EZ-Link NHS-PEG4, ratio 3:1) where used as bait; Also purified together with MksE; also called cg3106; source: E. coli BL21 (DE3) pLysS, purified (Ni-NTA, SEC)
T2 sequence (looked up): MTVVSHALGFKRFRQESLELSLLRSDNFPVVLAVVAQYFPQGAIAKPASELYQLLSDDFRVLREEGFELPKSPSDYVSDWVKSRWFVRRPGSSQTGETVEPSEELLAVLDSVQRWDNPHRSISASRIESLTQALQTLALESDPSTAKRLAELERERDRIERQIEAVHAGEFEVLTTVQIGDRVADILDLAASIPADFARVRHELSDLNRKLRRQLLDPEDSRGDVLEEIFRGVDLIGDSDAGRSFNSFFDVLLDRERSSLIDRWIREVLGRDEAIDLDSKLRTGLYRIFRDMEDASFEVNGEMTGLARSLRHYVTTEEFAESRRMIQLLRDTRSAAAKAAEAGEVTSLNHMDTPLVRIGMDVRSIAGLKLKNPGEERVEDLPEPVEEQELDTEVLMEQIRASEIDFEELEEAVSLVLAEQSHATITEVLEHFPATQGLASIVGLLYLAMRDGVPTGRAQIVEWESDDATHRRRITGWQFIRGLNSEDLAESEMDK

Sequence of MksE (His6-MksE), kite subunit of the Corynebacterium glutamicum MksBEFG complex (Corynebacterium glutamicum) (Q8NLY1 entry or part of it, one chain of several): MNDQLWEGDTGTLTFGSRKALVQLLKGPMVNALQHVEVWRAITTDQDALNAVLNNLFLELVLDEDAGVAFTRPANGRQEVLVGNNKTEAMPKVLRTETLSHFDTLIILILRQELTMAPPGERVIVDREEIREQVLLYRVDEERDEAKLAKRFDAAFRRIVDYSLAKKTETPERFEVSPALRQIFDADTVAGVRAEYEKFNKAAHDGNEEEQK
Sequence of MksB (His10-MksB), condensin-like ATPase subunit of the Corynebacterium glutamicum MksBEFG complex (Corynebacterium glutamicum) (Q8NLY2 entry or part of it, one chain of several): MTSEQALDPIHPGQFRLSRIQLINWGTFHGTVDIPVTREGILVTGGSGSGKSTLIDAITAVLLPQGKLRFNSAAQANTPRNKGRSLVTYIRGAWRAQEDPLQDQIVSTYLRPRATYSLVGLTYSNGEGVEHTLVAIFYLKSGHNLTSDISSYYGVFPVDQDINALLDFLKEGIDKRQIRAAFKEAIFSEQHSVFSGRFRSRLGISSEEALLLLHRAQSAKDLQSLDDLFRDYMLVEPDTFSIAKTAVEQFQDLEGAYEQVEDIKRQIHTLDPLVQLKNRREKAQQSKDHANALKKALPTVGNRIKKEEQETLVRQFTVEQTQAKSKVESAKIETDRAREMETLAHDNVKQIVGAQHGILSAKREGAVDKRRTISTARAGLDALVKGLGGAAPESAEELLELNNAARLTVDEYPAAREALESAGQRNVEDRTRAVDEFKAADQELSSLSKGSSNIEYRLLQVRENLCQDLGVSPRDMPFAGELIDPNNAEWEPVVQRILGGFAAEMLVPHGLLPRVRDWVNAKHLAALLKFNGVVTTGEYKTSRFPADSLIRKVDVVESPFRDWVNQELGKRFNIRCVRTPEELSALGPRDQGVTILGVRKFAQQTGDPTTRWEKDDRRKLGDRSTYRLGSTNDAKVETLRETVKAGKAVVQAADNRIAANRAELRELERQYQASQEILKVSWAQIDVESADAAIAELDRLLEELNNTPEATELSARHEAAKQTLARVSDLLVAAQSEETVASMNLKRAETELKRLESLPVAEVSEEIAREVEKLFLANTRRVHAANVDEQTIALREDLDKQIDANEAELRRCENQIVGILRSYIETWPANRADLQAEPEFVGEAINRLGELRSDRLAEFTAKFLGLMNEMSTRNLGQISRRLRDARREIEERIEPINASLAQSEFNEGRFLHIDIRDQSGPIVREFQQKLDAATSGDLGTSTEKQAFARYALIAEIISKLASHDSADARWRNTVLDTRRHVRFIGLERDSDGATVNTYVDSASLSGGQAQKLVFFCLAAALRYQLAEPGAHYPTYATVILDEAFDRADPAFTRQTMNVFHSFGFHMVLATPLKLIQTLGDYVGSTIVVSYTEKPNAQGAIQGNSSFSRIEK
T1 sequence (Q8NLY2 entry or part of it, one chain of several): as above
T1 sequence (Q8NLY1 entry or part of it, one chain of several, further chain): as the sequence (Q8NLY1 entry or part of it, one chain of several) above

## Nc1ncnc2c1ncn2[C@@H]1O[C@H](COP(=O)(O)OP(=O)(O)OP(=O)(O)O)[C@@H](O)[C@H]1O [ATP]
[1]
  EnzChek phosphate release: kleisin subunit MksF and the kite subunit MksE stimulated the ATPase activity of MksB

## MksF (His6-MksF), kleisin subunit of the Corynebacterium glutamicum MksBEFG complex (from UniProt Q8NLY0 1-495) (natural protein)
[2]
  Kd: 2.17 µM
  koff: 0.16 s⁻¹
  kon: 74200 M⁻¹ s⁻¹
[3]
  Kd: 4.94 µM
  koff: 0.138 s⁻¹
  kon: 27800 M⁻¹ s⁻¹

B1: MksG, 6xHis-SUMO-tagged construct for crystallization (enzyme, Corynebacterium glutamicum)
chain: MPLFIDDALHRSKKYFHAHLSELLLGEFAGLSLPLHPPTAAKAAADIDATREFIRQWEGRDDVEYAIRNWSPVGLGKTEVPVRLTLNTTEELVVFAQVEDEWSSLHERFSQLSGFTAEVVAKHVSLWRSLSNDDLSKAVLVVDWFLKHPNSGLLKRAVAVEGVHTKWLENHRVLIETLVADKRGEPGRADLGLGDAEARVRLRFHSVDAPAGLTDIEVPLSNLCELQEPQVILMVENLDSFLALPTWPGVTIAWGAGYRAVDIVRGPYFSNGRLLYWGDLDLDGFKILDGVRSHVPHTESVLMNSETVSRWRYLGVADREFKAESFDNLHDFESDALDLLITDGELRIEQERIRLDVAVEEIEKVIRG
notes: MksG of Corynebacterium glutamicum (cg3103), amplified from pMG003 and subcloned into a pET28 derivative with an N-terminal 6xHis-SUMO tag; The methods tell of no cleavage of the 6xHis-SUMO tag before crystallization; also called 6xHis-SUMO-MksG; source: E. coli BL21 C41, purified (Ni-NTA, SEC)
[4]
  stoichiometry N: 2

B2: MksG (His6-MksG), nuclease subunit of the Corynebacterium glutamicum MksBEFG complex (enzyme)
chain: B1 chain
notes: MksG of Corynebacterium glutamicum, gene mksG (cg3103), amplified from genomic DNA and ligated NdeI/BamHI into pET28a (plasmid pMG003); Biotinylated (EZ-Link NHS-PEG4, ratio 3:1) where used as bait in BLI; The methods speak of 'dimeric MksG'; also called cg3103; source: E. coli BL21 (DE3) pLysS, purified (Ni-NTA, SEC)
[5]
  Kd: 6 µM
  koff: 0.136 s⁻¹
  kon: 22500 M⁻¹ s⁻¹

Source: PMC10123090, “The MksG nuclease is the executing part of the bacterial plasmid defense system MksBEFG” (Nucleic Acids Research, 2023)
